Our source for the increase of complex formation with 2 µM Ca2+ over Ca2+-free control values is paper PMC5748978.

The assay addresses GST-Abp1^SH3 (UniProt Q62418). In words: pull-down.

With “endogenous Cobl-like from rat brain extracts (natural protein)”, the increase of complex formation with 2 µM Ca2+ over Ca2+-free control amounted to 46%.
